Results published in the RNAGym collection of RNA variant scans (doi:10.1073/pnas.2313332121).

B1: TPR t1 (parent)
chain: GACCAAUCUGCCCUCAGAGCUCGAGAACAUCUUCGGAUGCAGAGGAGGCAGGCUUCGGUGGCGCGAUAGCGCCAACGUCCUCAACCUCCAAUGCAUCCCACCACAUGAUGAUGCCUGAAGAGCCUUGGUUUUUUG

Variants of: B1
Experiment: polymerase ribozyme fitness, log enrichment relative to wild type (log ratio); higher = more active; in vitro selection for triplet polymerase activity
Procedure, shortened: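 Each subunit of a heterodimeric triplet polymerase ribozyme was represented by a PCR-built, transcribed mutant library that underwent triplicate single-round in vitro selection with frozen incubation at −7 °C. Extended constructs were recovered by gel excision, streptavidin-bead capture and RT-PCR, and Illumina sequencing of input and output libraries kept genotypes with ≥10 input reads and ≥1 read per output. Fitness is the logarithm of genotype enrichment relative to wild-type enrichment, from inverse-variance-weighted replicate averages, with a logarithm base of 2.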

Row | Variant | polymerase ribozyme fitness (log ratio)
1 | C20G A24G G45C C73A C88A C115U | -5.98
2 | A50U G122A | -1.23
3 | C8G C99U | -2.82
4 | G48U C114G G122A C123G | -3.44
5 | C8A C34A A37U C104U | -1.95
6 | A41G U87G U109A C115U | -6.39
7 | C98A A118U | -4.71
8 | G63A A105U | -3.59
9 | G10C A27G A43U G110U | -5.07
10 | G42U C62A C73U U112C U130G | -3.26
11 | A29G G36A C53U U55C G69U G127C | -4.42
12 | U55A G69U | 0.503
13 | C11G C34U | -2.8
14 | C11A C40U G45A C70A G120C | -1.21
15 | G44U G45C C62U | -3.45
16 | A37U G52U C62A | -2.78
17 | G48U A91U C104A | -5.89
18 | C56G U130C | -1.02
19 | C76A U78A A91U U112G | -3.63
20 | C53G U87G C99G C101U G107U G113A | -7.29
21 | G39A A43U C88G C123A | -4.11
22 | G63U A100C | -2.79
23 | U106G U133G | -0.611
24 | G48A G71A C102A | -3.85

Row | Variant | polymerase ribozyme fitness (log ratio)
25 | A105C G117A | -5.32
26 | C13U G19A A37G | -2.93
27 | U7G U14G C94A | -0.903
28 | C11A G39A A43U U59C A91C G113A A118G C124G U125A | -4.98
29 | U9G G110A | -0.713
30 | G107A U132A | -5.08
31 | U54C U87A | 0.213
32 | A26U G52U C56U | -3.49
33 | C15U C56A | -1.78
34 | C8G G113C | -1.31
35 | U7A A37U U54G G127A G128U | -3.62
36 | C4G C53A C56U C99U U130G | -5.15
37 | A84G C85A G127U | -5.16
38 | A18U A90C G120A | -0.842
39 | A18C C72G U78C C104A C114G | -3.63
40 | A2U C11U G63U C101G G113U C115U | -6.67
41 | C53G C94U | -0.473
42 | A27G G113U | -3.25
43 | U38G G69C C86U C115A | -3.28
44 | A5U U21G U55C G61U C79U C114A U126A | -1.56
45 | G39C G69A | -3.44
46 | G10A A27G C76U C94A | -5.09
47 | C72U C94G C101A | -2.57
48 | C72G C79A | -0.874

Row | Variant | polymerase ribozyme fitness (log ratio)
49 | C8U U14A G36A C72U | -2.09
50 | C8G G10C C73G U81A C88U | -1.77
51 | C85U A111U G122U | -4.09
52 | C3U A95G | 0.0555
53 | U9G C13U A91U G113A A119C G128A | -4.02
54 | G47A G57C A121U G135U | 1.05
55 | G42U U92A | -2.25
56 | C53A C56A G69U G127U | -1.27
57 | A84C U96C | -0.0472
58 | C11G C101A | -0.692
59 | A5U A6G C53U G117A U129A | -2.59
60 | G39C | -0.776
61 | C62U G107U | -4.02
62 | C20A G52C C72A | -2.79
63 | U14A A105G | -5.21
64 | C8U G60C U129C | -0.854
65 | C86G C101U | -0.616
66 | G19A G48U G63A U96G C101A G113U | -5.6
67 | G44U G47U C72A U81G G117C | -6.49
68 | C8U U9G C12A G58A | 0.43
69 | C12U C124U | 1.66
70 | G57A G60U C88U C94U | -1.24
71 | C53U C76U G128A | -2.11
72 | G17A U55A C72A | -3.74

Row | Variant | polymerase ribozyme fitness (log ratio)
73 | A6C U59G | -0.454
74 | A50C C115A | -1.39
75 | C12A U112A | 1.18
76 | C53G G77U C86A | -1.02
77 | A43G G60A | -2.12
78 | C62A U131C | -0.63
79 | C12U G113A | 0.642
80 | C15U G117C | -2.96
81 | A16G C34A | -3.22
82 | A37U C49G | -0.828
83 | U30A A121C | -3.22
84 | G44C U106C | -0.754
85 | G17A C123A | -3.08
86 | G19U A43U | -3.24
87 | C56A A84G C104U G120A | -1.12
88 | G47U G77U C94A U116C A121C | -4.66
89 | G52U C72U | -0.747
90 | G45A C104U | -0.463
91 | U55G A121C G135U | 1.07
92 | G44C C85U G117A C124A U125C | -1.55
93 | A83G C114A | -3.07
94 | G71C U132A | -0.602
95 | A29U C72U U92C | -2.98
96 | A29G A37U C89U C94U C123A U126A | -3.13

Row | Variant | polymerase ribozyme fitness (log ratio)
97 | C13G G17U A18U C40G C56A G107A C114U | -6.86
98 | C8U C97U | -0.0319
99 | G69U C123G | 2.28
100 | A50U C86U G93U U112C | -1.3
101 | A50U C85G C89A G120U | -3.42
102 | U7A G120A | 1.77
103 | C40G C72G C82U U106A | -2.01
104 | C8U G71C U87A | -2.97
105 | G45C U132A | -1.99
106 | C11A U96A G113C | -5.3
107 | A18G C101U C114U U129A | -5.75
108 | A83G A105G C115U | -2.83
109 | G47A U96A | -1.93
110 | A16G C98U | -3.02
111 | C102U C114A | -3.75
112 | C70U C85G | -2.33
113 | G19A G23U U92A G120U C124U | -6.05
114 | C13U G63C C76A U78A | -6.73
115 | C70U A74U | -0.47
116 | G69A C89A | -4.54
117 | A6U A74C | 0.0283
118 | G60U U81A | -0.347
119 | G44A G48C C102U C124A | -1.74
120 | A29U C73A A118U | -0.992

Row | Variant | polymerase ribozyme fitness (log ratio)
121 | U32C C72A C101U U112A C123G | -3.08
122 | A24G C73U C88U C101U | -2.26
123 | G57A G127U | -1.83
124 | U9C C40U C62G G117C | -5.48
125 | A18U C22U A43G G60A | -6.88
126 | A26G A37U C72G C123U U133A | -2.74
127 | G48U C85G C89U | -0.48
128 | G44A C49U G117C U133G | -5.23
129 | C3U U112A G120U U125G | -2.25
130 | A41U C97U | -2.14
131 | A66U C85G | -1.65
132 | U9G G52U C82U | -1.33
133 | G39A U92C | -2.34
134 | A43U G48C G57A C89U U106C | -2.94
135 | C15U U38A G60U A83G | -2.98
136 | U21A G42U C98U C104U C114G C124A | -5.22
137 | A26G C70G G113A | -5.88
138 | A24G C73U U87C | -1.49
139 | C62G C82A | -1.67
140 | A108U U112C | -5.97
141 | C13G A50G U106A C124A G127U | 1.19
142 | G61C C82A G110A G127A | -3.64
143 | C72G C89A A90U | -2.32
144 | G69U C80U C102U C104U G120C | 1.02

Row | Variant | polymerase ribozyme fitness (log ratio)
145 | C72G C94A A119U | -1.99
146 | C31G A37U G71A C76U U78G A105C G110C | -6.15
147 | G19C G63U C80A G110C | -6.93
148 | G39A A43U C114U | -2.78
149 | U132A | -0.0436
150 | G71U C123A | 1.94
151 | A84U G93C | -1.39
152 | U38A G61C | -2.48
153 | A5C U14C G60U A100C G135U | -4.82
154 | G36A U92A C115U | -4.93
155 | U38A C80U C123U | -1.04
156 | U38G C53G | -1.52
157 | G47C C62U | -1.21
158 | U21C C56U | 0.0213
159 | U38A C80U | -1.43
160 | C80U A118C | -3.16
161 | A50U U96A | -1.77
162 | C8G A43G G69C | -3.18
163 | C49G G60U U96G | -0.746
164 | C12G C62G A75G U87C | -3.99
165 | C11U A18G A50U U96A C98U G110A A121G U134G | -5.84
166 | G44C G71U | -2.2
167 | U9A C40A G61U G93C C94G C124U | -0.833
